{
  "source": "patent US20220089735A1",
  "about": "(SUZHOU KANOVA BIOPHARMACEUTICAL, published 2022)",
  "binders": {"B1": {"name": "humanized anti-B7S1 antibody VH1-5/VL4-5 (antibody, V domains shown)", "VH": "QVQLVQSGAEVKKPGASVKVSCKASGYTFTSYWMHWVKQAPGQGLEWIAAIYPGNSDTDYNQKFKGKAKITAVTSTSTAYMELSSLRSEDTAVYYCTTTVAHYFDYWGQGTMVTVSS", "VL": "EIVMTQSPATLSLSPGERATLTCKASQDVSFAVAWYQQKPGQAPKLLISSASYRYTGVPDRFSGSGSGTDFTLTISSLEPEDFAVYYCQQHYNTPLTFGGGTKVEIK", "notes": "Tested as a whole antibody with a human Fc (detected with anti-human IgG, Fc capture in SPR)"}, "B2": {"name": "humanized anti-B7S1 antibody VH1-5/VL4-4 (antibody, V domains shown)", "VH": "B1 VH", "VL": "B1 VL with M4L, T22S, K45R", "notes": "as for B1"}, "B3": {"name": "humanized anti-B7S1 antibody VH1-4/VL4-5 (antibody, V domains shown)", "VH": "B1 VH with K38R, A79V", "VL": "B1 VL", "notes": "as for B1"}},
  "note": "Residue numbers refer to the chain shown, from its start.",
  "data": [
    {"target": "T1, human B7S1 (NCBI Reference Sequence: NP_078902.2) expressed on a cell surface (human, UniProt Q7Z7D3 25-282)", "T1 construct": "whole, on cells; the assay field says which cells were used; also called B7S1 overexpressed on cell surface; B7S1 transfected BaF3 cell line", "T1 sequence (looked up)": "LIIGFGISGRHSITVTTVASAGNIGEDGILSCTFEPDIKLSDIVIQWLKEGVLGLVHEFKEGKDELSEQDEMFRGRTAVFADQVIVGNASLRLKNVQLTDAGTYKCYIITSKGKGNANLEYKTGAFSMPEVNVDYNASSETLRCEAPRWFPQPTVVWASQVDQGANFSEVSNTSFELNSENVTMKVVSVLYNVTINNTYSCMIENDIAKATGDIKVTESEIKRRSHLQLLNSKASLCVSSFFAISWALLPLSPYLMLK", "assay": "flow cytometry on LPS-stimulated human PBMCs (percentage of live PBMC stained), detection with Alexa Fluor 594 goat anti-human IgG", "method": "(§1) Peripheral blood mononuclear cells (PBMCs) contain monocytes which under stimulation would up-regulate B7S1 expression on cell surface. This example is to evaluate humanized anti-B7S1 antibody binding affinity on monocytes. Human buffy coat was diluted with PBS to according volume as twice as Ficoll (GE, 17-1440-02). The diluted buffy coat was layered gently on top of Ficoll and centrifuged at 2500 rpm for 40 min at 20° C. without brake. Carefully draw off PBMCs layer in between Ficoll and its transparent supernatant. PBS was added to 5 volumes of PBMCs and centrifuged at 1200 rpm for 10 min at 20° C. Discard supernatant and wash with PBS again. To eliminate platelets, centrifuge at 900 rpm for 8 min at 20° C. PBMCs were resuspended with culture medium (RPMI-1640 with 10% FBS and 1% PS), counted and aliquot to 96-well plate (5×10\\hat{ }5 cells/well) with LPS added (100 ng/ml). After 24h incubation, cells were washed with PBS twice. For live/dead stain, LIVE/DEAD® Fixable Aqua Dead Cell Stain Kit (Life technologies, L34957) was applied (1:1000 in PBS, 100 ul/well) to cells, and incubated at 4° C. for 10 min FACS buffer (2% FBS in PBS, 100 ul/well) was added to each well to terminate staining. Centrifuge (1200 rpm, 5 min) to discard supernatant and wash with FACS buffer once. Humanized anti-B7S1 antibodies were diluted in FACS buffer to according concentrations and added to each well (100 ul/well). Cells were incubated at 4° C. for 30 min, and then, washed twice with FACS buffer. […] Cells were incubated at 4° C. for 30 min, and then, washed twice with FACS buffer. Cells were tested on flow cytometry. […] The mAbs meet the requirements for binding profile of antibody drugs.", "units": {"EC50": "nM"}, "values": [
      {"binder": "B1", "EC50": 2.6},
      {"binder": "B2", "EC50": 3},
      {"binder": "B3", "EC50": 2.4}
    ]},
    {"target": "T2, human B7S1-his (Sinobiological, cat#10738-H08H-100) (human, UniProt Q7Z7D3 25-259)", "T2 construct": "extracellular domain; Bought protein; also called human B7S1 extracellular domain; B7-H4; not shown: His tag", "T2 sequence (looked up)": "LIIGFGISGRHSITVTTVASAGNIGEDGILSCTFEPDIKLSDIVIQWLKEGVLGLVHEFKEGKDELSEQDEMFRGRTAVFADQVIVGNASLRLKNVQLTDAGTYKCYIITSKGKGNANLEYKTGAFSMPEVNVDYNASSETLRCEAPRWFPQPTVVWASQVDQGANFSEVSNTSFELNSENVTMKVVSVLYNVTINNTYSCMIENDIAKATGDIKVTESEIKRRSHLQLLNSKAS", "assay": "ELISA, antigen coated on plate", "method": "(§2) In order to test humanized anti-B7S1 antibody binding affinity, an ELISA analysis was carried out. 2 μg/ml of human B7S1-his (Sinobiological, cat#10738-H08H-100), mouse B7S1-his (R&D system, cat#4206-B7-100), and cynomolgus B7S1 extracellular domain (Leu25-Ser259, NCBI Reference Sequence: XP_005542249.1) were coated on MaxiSorp 96-well plates (NUNC, 449824) in 0.5M carbonate/bicarbonate buffer, pH9.6, incubated at 4° C. over night. Coated plates were blocked with skimmed milk (5%, in PBST) for 1h. Humanized anti-B7S1 antibodies were diluted and added to the plates, and incubated for 2h at room temperature. Washed three times with PBST (lx PBS with 0.05% tween-20) to eliminate un-bounded antibodies. Goat anti-Human IgG-HRP (Easybio, BE0122, 1:5000 in PBS) was added and incubated for 1h. Washed three times with PBST (lx PBS with 0.05% tween-20) to eliminate un-bounded antibodies. TMB (eBioscience, 00-4201-56) was added (50 ul/well) for color rendering and stopped by 2N H₂SO₄ (50 ul/well). Optical density was measured at 450 nm and 570 nm.", "units": {"EC50": "nM"}, "values": [
      {"binder": "B1", "EC50": 0.52},
      {"binder": "B2", "EC50": 0.4},
      {"binder": "B3", "EC50": 0.25}
    ]},
    {"target": "T3, mouse B7S1-his (R&D system, cat#4206-B7-100) (mouse, UniProt Q7TSP5 29-256)", "T3 construct": "Bought protein; not shown: His tag", "T3 sequence (looked up)": "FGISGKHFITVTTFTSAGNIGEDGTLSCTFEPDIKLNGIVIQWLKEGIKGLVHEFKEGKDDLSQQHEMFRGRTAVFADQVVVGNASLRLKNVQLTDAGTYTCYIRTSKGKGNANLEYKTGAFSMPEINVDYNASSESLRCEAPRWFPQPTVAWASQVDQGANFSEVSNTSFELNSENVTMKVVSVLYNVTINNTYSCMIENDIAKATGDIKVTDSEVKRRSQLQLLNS", "assay": "ELISA, antigen coated on plate", "method": "as §2", "units": {"EC50": "nM"}, "values": [
      {"binder": "B1", "EC50": 1.09},
      {"binder": "B2", "EC50": 0.88},
      {"binder": "B3", "EC50": 1.59}
    ]},
    {"target": "T4, cynomolgus B7S1 extracellular domain (Leu25-Ser259, NCBI Reference Sequence: XP_005542249.1) (cynomolgus monkey)", "T4 construct": "range 25-259; No tag or fusion partner is stated; also called cynomolgus monkey B7S1", "assay": "ELISA, antigen coated on plate", "method": "as §2", "units": {"EC50": "nM"}, "values": [
      {"binder": "B1", "EC50": 8.09},
      {"binder": "B2", "EC50": 3.26},
      {"binder": "B3", "EC50": 7.82}
    ]},
    {"target": "T1, human B7S1 (NCBI Reference Sequence: …)", "assay": "flow cytometry (mean fluorescence intensity) on BaF3 cells expressing human B7S1, detection with Alexa Fluor 594 goat anti-human IgG", "method": "To evaluate anti-B7S1 antibody binding affinity on cell surface over expressing B7S1, human B7S1 (NCBI Reference Sequence: NP_078902.2) was constructed on BaF3 cell line. The cells were washed with PBS and aliquot to 96-well U-bottom plate with a cell density of 5×10\\hat{ }5 cells/well. For live/dead stain, LIVE/DEAD® Fixable Aqua Dead Cell Stain Kit (Life technologies, L34957) was applied (1:1000 in PBS, 100 ul/well) to cells, and incubated at 4° C. for 10 min FACS buffer (2% FBS in PBS, 100 ul/well) was added to each well to terminate staining. Centrifuge (1200 rpm, 5 min) to discard supernatant and wash with FACS buffer once. Humanized anti-B7S1 antibodies were diluted in FACS buffer to according concentrations and added to each well (100 ul/well). Cells were incubated at 4° C. for 30 min, and then, washed twice with FACS buffer. […] Cells were incubated at 4° C. for 30 min, and then, washed twice with FACS buffer. […] For example, the binding EC₅₀ of the tested mAbs is in the sub nM range.", "units": {"EC50": "nM"}, "values": [
      {"binder": "B1", "EC50": 3.8},
      {"binder": "B2", "EC50": 3.1},
      {"binder": "B3", "EC50": 4.2}
    ]},
    {"target": "T2, human B7S1-his (Sinobiological, …)", "assay": "SPR, Biacore 8K, antibody captured by Fc, B7S1 as analyte", "method": "FIG. 1. Experimental results of Surface Plasmon Resonance (SPR) binding analysis using Biacore 8K. The data of dissociation (kd) and association (ka) rate constants were obtained using Biacore 8K evaluation software. The equilibrium dissociation constants (KD) were calculated from the ratio of kd over ka.\nIn addition, the affinity of the above mAbs was further analyzed by Surface Plasmon Resonance (SPR) binding analysis using Biacore 8K. SPR is the resonant oscillation of conduction electrons at the interface between negative and positive permittivity material stimulated by incident light. Antibodies were immobilized on the sensor chip through Fc capture method. Human B7S1 (Sinobiological, cat#10738-H08H-100) was used as the analyte. The data of dissociation (kd) and association (ka) rate constants were obtained using Biacore 8K evaluation software. The equilibrium dissociation constants (KD) were calculated from the ratio of kd over ka.", "units": {"Kd": "nM", "koff": "s⁻¹", "kon": "M⁻¹ s⁻¹"}, "values": [
      {"binder": "B1", "Kd": 3.24, "koff": 0.000265, "kon": 81700},
      {"binder": "B2", "Kd": 1.86, "koff": 0.000187, "kon": 101000},
      {"binder": "B3", "Kd": 4.08, "koff": 0.000436, "kon": 107000}
    ]},
    {"target": "T1, human B7S1 (NCBI Reference Sequence: …)", "assay": "flow cytometry, LPS-stimulated human PBMCs", "method": "as §1", "units": {"EC50": "nM"}, "values": [
      {"binder": "B1", "EC50": "< 3"},
      {"binder": "B2", "EC50": "< 3"},
      {"binder": "B3", "EC50": "< 3"}
    ]}
  ]
}
